As usually defined, the Kd is the constant that tells how readily two partners part at equilibrium. As a reminder, the koff is the rate constant with which the complex falls apart. For orientation: kon means a measure of how fast the partners come together.

The text below walks through data of patent US20130101595A1.

The target of assay [1] is recombinant human IL-18 (rhIL-18) (human) (UniProt Q14116). Kind of assay: SPR (BIAcore), biotinylated rhIL-18 on streptavidin chip, antibody in solution. A general note: Surface plasmon resonance follows binding to a sensor surface in real time, without labels.
Assay [2] shares this target. Kind of assay: cell-based or functional assay.

B1: 125-2H (antibody, from another filing, V domains shown)
VH: EIQLQQSGPELVKPGASVKVSCKASGYSFTDYFIYWVKQSHGKSLEWIGDIDPYNGDTSYNQKFRDKATLTVDQSSTTAFMHLNSLTSEDSAVYFCARGLRFWGQGTLVTVSA
VL: DIQMTQSPSSLSASLGERVSLTCRASQDIGSKLYWLQQEPDGTFKRLIYATSSLDSGVPKRFSGSRSGSDYSLTISSLESEDFVDYYCLQYASSPYTFGGGTKLAIKR
On to B1, for which, in assay [1], the Kd is 620 pM, the dissociation rate constant (koff) worked out at 0.00011 s⁻¹ and the kon is 170000 M⁻¹ s⁻¹. The IC50 Value, KG-1 cell-based IL-18 neutralization assay (hIFN-gamma) in assay [2] was 200 pM.
